Measurements taken from US12097241B2, “Methods of treating kidney failure, and/or improving or stablizing renal function using modified relaxin polypeptides” (BRISTOL-MYERS SQUIBB COMPANY, priority 2017, dated 2024).
pEC50: −log10 of the molar value. Read-outs that look alike come from different tables or passages of the source.

How the values were obtained:
[1] = In vivo pharmacokinetic (PK) studies in rats; set-up: species or system Sprague-Dawley rats; conditions: rat, male Sprague-Dawley rats, single SC dose 1.0 mg/kg, serum ELISA; for AUC(0-inf): read-out: Rat PK AUC Total; for level at time molar at 24 h: read-out: Rat PK C24
Summary of the method: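 Male Sprague-Dawley rats (n=3) given a single 1 mg/kg IV or SC dose of relaxin constructs in 20 mM histidine, 750 mM NaCl, pH 6.0; jugular serum sampled to 72 h. Serum relaxin by ELISA; Cmax, AUCinf, C24 and half-life from non-compartmental analysis of individual profiles.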

human RXFP1 receptor = molecular target: T1, human RXFP1 receptor (Homo sapiens, UniProt Q9HBX9); test: Intracellular cAMP accumulation assay; type: cell-based; conditions: for EC50: CHO-K1 cells stably expressing human RXFP1, 10 min at 37° C., HTRF cAMP, average, read-out: hRXFP1/CHO-K1 cAMP EC50 (nM, avg)
T1 construct: expressed in transfected cells
T1 sequence (Q9HBX9 1-757): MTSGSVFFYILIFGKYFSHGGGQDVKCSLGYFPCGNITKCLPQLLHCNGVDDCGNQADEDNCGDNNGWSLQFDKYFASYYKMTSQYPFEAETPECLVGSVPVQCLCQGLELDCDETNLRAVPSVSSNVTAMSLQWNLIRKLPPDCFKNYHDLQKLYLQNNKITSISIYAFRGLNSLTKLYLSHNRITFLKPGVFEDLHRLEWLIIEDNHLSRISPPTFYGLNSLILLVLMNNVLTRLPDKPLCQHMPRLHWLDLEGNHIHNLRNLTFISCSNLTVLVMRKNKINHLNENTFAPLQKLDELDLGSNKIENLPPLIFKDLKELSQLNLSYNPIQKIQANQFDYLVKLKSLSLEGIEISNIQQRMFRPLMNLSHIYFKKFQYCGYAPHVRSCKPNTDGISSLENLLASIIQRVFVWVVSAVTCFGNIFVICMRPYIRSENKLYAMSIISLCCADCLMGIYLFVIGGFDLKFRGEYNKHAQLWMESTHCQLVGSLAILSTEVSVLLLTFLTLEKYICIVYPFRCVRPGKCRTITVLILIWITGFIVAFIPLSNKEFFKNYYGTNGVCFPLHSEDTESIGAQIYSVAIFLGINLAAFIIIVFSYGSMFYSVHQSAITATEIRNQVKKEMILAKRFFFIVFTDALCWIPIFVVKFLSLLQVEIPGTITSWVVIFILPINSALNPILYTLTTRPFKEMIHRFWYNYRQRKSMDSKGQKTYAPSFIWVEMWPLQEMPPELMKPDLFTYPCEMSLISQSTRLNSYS
Description: The intracellular cAMP accumulation assay described herein was used to assess relaxin bioactivity and potency.
CHO-K1 cells (ATCC; Cat. #CRL-9618) stably expressing the human RXFP1 receptor (locus number LOC59350) (10,000/well) were plated into 96-well plates and cultured overnight at 37° C. and 5% CO2. On the following day, the medium was removed from the wells and the cells were stimulated with the addition of ligand (relaxin polypeptide) in 50 uL buffer (1×HBSS, 5 mM HEPES (7.2), 0.5 mM IBMX, 0.1% BSA); incubation was for 10 min at 37° C. Unstimulated cells were utilized as reference controls. Reactions were terminated and cellular cAMP levels were measured using the Homogeneous Time Resolved Fluorescence (HTRF) Dynamic 2 cAMP kit (CisBio, #62AM4PEC) according to the manufacturer's protocol. Plates were analyzed using an EnVision 2104 Multilablel Reader (PerkinElmer). Signal was expressed in terms of the ratio of fluorescence intensity @ 665 nm/fluorescence intensity @620 nm×10,000. The concentration of cAMP in the sample was determined by comparison with standard curves generated from known concentrations of cAMP. The potency of each relaxin was determined using a ten-point concentration response curves which was performed in duplicate. The data were analyzed using Microsoft Excel, Version 2013 Xlfit software. Effective concentration 50 (EC50) values, the point at which the response was one-half maximal, were calculated using a four-parameter logistic equation that allowed for a variable-slope (Table 3).

Compound	AUC(0-inf) [1] [µM·h]	level at time molar at 24 h [1] [nM]	EC50 (human RXFP1 receptor) [nM]	pEC50 (human RXFP1 receptor)
CC[C@H](C)[C@@H]1NC(=O)[C@H](C)NC(=O)[C@H]([C@@H](C)CC)NC(=O)[C@H](CCC(N)=O)NC(=O)[C@H](C)NC(=O)[C@H](CCCNC(=N)N)NC(=O)[C@H](C(C)C)NC(=O)[C@H](CC(C)C)NC(=O)[C@H](CCC(=O)O)NC(=O)[C@H](CCCNC(=N)N)NC(=O)CNC(=O)[C@@H](NC(=O)[C@H](CC(C)C)NC(=O)[C@H](CCCCN)NC(=O)[C@@H](NC(=O)[C@@H](NC(=O)[C@H](CCC(=O)O)NC(=O)[C@H](CCC(=O)O)NC(=O)[C@H](CCSC)NC(=O)[C@H](Cc2c[nH]c3ccccc23)NC(=O)[C@H](CO)NC(=O)[C@H](C)N)C(C)C)[C@@H](C)CC)CSSC[C@@H]2NC(=O)[C@@H](NC(=O)[C@H](CCCCN)NC(=O)[C@H](CC(N)=O)NC(=O)[C@H](C)NC(=O)[C@H](CC(C)C)NC(=O)[C@H](C)NC(=O)[C@H](CO)NC(=O)[C@H](Cc3ccc(O)cc3)NC(=O)[C@H](CC(C)C)NC(=O)[C@@H](N)Cc3ccc(C(C)=NOCCNC(=O)[C@H](CC(=O)O)NC(=O)[C@H](CCCNC(=N)N)NC(=O)[C@H](CC(=O)O)NC(=O)[C@H](CC(=O)O)NC(=O)[C@H](CCCNC(=N)N)NC(=O)[C@H](CC(=O)O)NC(=O)CCCCCCCCCCCCC(=O)O)cc3)CSSC[C@H](NC(=O)CNC(=O)[C@H](C(C)C)NC(=O)[C@H](Cc3c[nH]cn3)NC2=O)C(=O)N[C@@H]([C@@H](C)O)C(=O)N[C@@H](CCCCN)C(=O)N[C@@H](CCCNC(=N)N)C(=O)N[C@@H](CO)C(=O)N[C@@H](CC(C)C)C(=O)N[C@@H](C)C(=O)N[C@@H](CCCNC(=N)N)C(=O)N[C@@H](Cc2ccccc2)C(=O)N[C@H](C(=O)O)CSSC[C@@H](C(=O)NCC(=O)N[C@@H](CCSC)C(=O)N[C@@H](CO)C(=O)N[C@H](C(=O)N[C@@H](Cc2c[nH]c3ccccc23)C(=O)N[C@@H](CO)C(=O)O)[C@@H](C)O)NC1=O [AQ1-DRDDRD-C13-COOH]	1.01	0.38	0.32	–
CCCCCCCCCCCCCC(=O)N[C@@H](CCC(=O)NCC(=O)NCC(=O)NCC(=O)N[C@@H](CCC(=O)O)C(=O)N[C@@H](CCC(=O)O)C(=O)N[C@@H](CCC(=O)O)C(=O)NCCON=C(C)c1ccc(C[C@H](N)C(=O)N[C@@H](CC(C)C)C(=O)N[C@@H](Cc2ccc(O)cc2)C(=O)N[C@@H](CO)C(=O)N[C@@H](C)C(=O)N[C@@H](CC(C)C)C(=O)N[C@@H](C)C(=O)N[C@@H](CC(N)=O)C(=O)N[C@@H](CCCCN)C(=O)N[C@H]2CSSC[C@@H]3NC(=O)CNC(=O)[C@H](C(C)C)NC(=O)[C@H](Cc4c[nH]cn4)NC(=O)[C@H](CSSC[C@H](NC(=O)[C@H](CC(C)C)NC(=O)[C@H](CCCCN)NC(=O)[C@@H](NC(=O)[C@@H](NC(=O)[C@H](CCC(=O)O)NC(=O)[C@H](CCC(=O)O)NC(=O)[C@H](CCSC)NC(=O)[C@H](Cc4c[nH]c5ccccc45)NC(=O)[C@H](CO)NC(=O)[C@H](C)N)C(C)C)[C@@H](C)CC)C(=O)NCC(=O)N[C@@H](CCCNC(=N)N)C(=O)N[C@@H](CCC(=O)O)C(=O)N[C@@H](CC(C)C)C(=O)N[C@@H](C(C)C)C(=O)N[C@@H](CCCNC(=N)N)C(=O)N[C@@H](C)C(=O)N[C@@H](CCC(N)=O)C(=O)N[C@@H]([C@@H](C)CC)C(=O)N[C@@H](C)C(=O)N[C@@H]([C@@H](C)CC)C(=O)N[C@H](C(=O)NCC(=O)N[C@@H](CCSC)C(=O)N[C@@H](CO)C(=O)N[C@H](C(=O)N[C@@H](Cc4c[nH]c5ccccc45)C(=O)N[C@@H](CO)C(=O)O)[C@@H](C)O)CSSC[C@@H](C(=O)O)NC(=O)[C@H](Cc4ccccc4)NC(=O)[C@H](CCCNC(=N)N)NC(=O)[C@H](C)NC(=O)[C@H](CC(C)C)NC(=O)[C@H](CO)NC(=O)[C@H](CCCNC(=N)N)NC(=O)[C@H](CCCCN)NC(=O)[C@H]([C@@H](C)O)NC3=O)NC2=O)cc1)C(=O)O [AQ1-EEEGGG-Glu^γ-C13-CH3]	0.274	0.4	0.38	–
CC[C@H](C)[C@@H]1NC(=O)[C@H](C)NC(=O)[C@H]([C@@H](C)CC)NC(=O)[C@H](CCC(N)=O)NC(=O)[C@H](C)NC(=O)[C@H](CCCNC(=N)N)NC(=O)[C@H](C(C)C)NC(=O)[C@H](CC(C)C)NC(=O)[C@H](CCC(=O)O)NC(=O)[C@H](CCCNC(=N)N)NC(=O)CNC(=O)[C@@H](NC(=O)[C@H](CC(C)C)NC(=O)[C@H](CCCCN)NC(=O)[C@@H](NC(=O)[C@@H](NC(=O)[C@H](CCC(=O)O)NC(=O)[C@H](CCC(=O)O)NC(=O)[C@H](CCSC)NC(=O)[C@H](Cc2c[nH]c3ccccc23)NC(=O)[C@H](CO)NC(=O)[C@H](C)N)C(C)C)[C@@H](C)CC)CSSC[C@@H]2NC(=O)[C@@H](NC(=O)[C@H](CCCCN)NC(=O)[C@H](CC(N)=O)NC(=O)[C@H](C)NC(=O)[C@H](CC(C)C)NC(=O)[C@H](C)NC(=O)[C@H](CO)NC(=O)[C@H](Cc3ccc(O)cc3)NC(=O)[C@H](CC(C)C)NC(=O)[C@@H](N)Cc3ccc(C(C)=NOCCNC(=O)[C@H](CCC(=O)O)NC(=O)[C@H](CCC(=O)O)NC(=O)[C@H](CCC(=O)O)NC(=O)CNC(=O)CNC(=O)CNC(=O)CC[C@H](NC(=O)CCCCCCCCCCCCC(=O)O)C(=O)O)cc3)CSSC[C@H](NC(=O)CNC(=O)[C@H](C(C)C)NC(=O)[C@H](Cc3c[nH]cn3)NC2=O)C(=O)N[C@@H]([C@@H](C)O)C(=O)N[C@@H](CCCCN)C(=O)N[C@@H](CCCNC(=N)N)C(=O)N[C@@H](CO)C(=O)N[C@@H](CC(C)C)C(=O)N[C@@H](C)C(=O)N[C@@H](CCCNC(=N)N)C(=O)N[C@@H](Cc2ccccc2)C(=O)N[C@H](C(=O)O)CSSC[C@@H](C(=O)NCC(=O)N[C@@H](CCSC)C(=O)N[C@@H](CO)C(=O)N[C@H](C(=O)N[C@@H](Cc2c[nH]c3ccccc23)C(=O)N[C@@H](CO)C(=O)O)[C@@H](C)O)NC1=O [AQ1-EEEGGG-Glu^γ-C13-COOH]	1.38	0.29	0.31	–
CC[C@H](C)[C@@H]1NC(=O)[C@H](C)NC(=O)[C@H]([C@@H](C)CC)NC(=O)[C@H](CCC(N)=O)NC(=O)[C@H](C)NC(=O)[C@H](CCCNC(=N)N)NC(=O)[C@H](C(C)C)NC(=O)[C@H](CC(C)C)NC(=O)[C@H](CCC(=O)O)NC(=O)[C@H](CCCNC(=N)N)NC(=O)CNC(=O)[C@@H](NC(=O)[C@H](CC(C)C)NC(=O)[C@H](CCCCN)NC(=O)[C@@H](NC(=O)[C@@H](NC(=O)[C@H](CCC(=O)O)NC(=O)[C@H](CCC(=O)O)NC(=O)[C@H](CCSC)NC(=O)[C@H](Cc2c[nH]c3ccccc23)NC(=O)[C@H](CO)NC(=O)[C@H](C)N)C(C)C)[C@@H](C)CC)CSSC[C@@H]2NC(=O)[C@@H](NC(=O)[C@H](CCCCN)NC(=O)[C@H](CC(N)=O)NC(=O)[C@H](C)NC(=O)[C@H](CC(C)C)NC(=O)[C@H](C)NC(=O)[C@H](CO)NC(=O)[C@H](Cc3ccc(O)cc3)NC(=O)[C@H](CC(C)C)NC(=O)[C@@H](N)Cc3ccc(C(C)=NOCCNC(=O)CNC(=O)CNC(=O)CNC(=O)CNC(=O)[C@@H]4CCCN4C(=O)CC[C@H](NC(=O)CCCCCCCCCCCCCC(=O)O)C(=O)O)cc3)CSSC[C@H](NC(=O)CNC(=O)[C@H](C(C)C)NC(=O)[C@H](Cc3c[nH]cn3)NC2=O)C(=O)N[C@@H]([C@@H](C)O)C(=O)N[C@@H](CCCCN)C(=O)N[C@@H](CCCNC(=N)N)C(=O)N[C@@H](CO)C(=O)N[C@@H](CC(C)C)C(=O)N[C@@H](C)C(=O)N[C@@H](CCCNC(=N)N)C(=O)N[C@@H](Cc2ccccc2)C(=O)N[C@H](C(=O)O)CSSC[C@@H](C(=O)NCC(=O)N[C@@H](CCSC)C(=O)N[C@@H](CO)C(=O)N[C@H](C(=O)N[C@@H](Cc2c[nH]c3ccccc23)C(=O)N[C@@H](CO)C(=O)O)[C@@H](C)O)NC1=O [AQ1-GGGGP-Glu^γ-C14-COOH]	2.18	3.9	–	9.41
